The nature of this data set: soluble on expression in E. coli; label from the status in PepcDB or PDB records.
Regarding “MALTEQKRVRLEKLSDENGIISALAFDQRGALKRLMVKHQTEEPTVAQMEELKVLVADELTKYASSMLLDPEYGLPATKALDEKAGLLLAYEKTGYDTTSTKRLPDCLDVWSAKRIKEEGADAVKFLLYYDVDSSDELNQEKQAYIERIGSECVAEDIPFFLEILAYDEKIADAGSVEYAKVKPHKVIGAMKVFSDPRFNIDVLKVEVPVNIKYVEGFAEGEVVYTREEAAAFFKAQDEATNLPYIYLSAGVSAKLFQDTLVFAHESGANFNGVLCGRATWAGSVEAYIKDGEAAARECVRTTGFENIDELNKVLQRTATSWKERV”, the “soluble on expression in E. coli” value is listed as “soluble”.
The value for “GNYPRNVGLSPLSGVDPSEVFDVTPYAVATDKYFIKNATTYHLPRKLKVSYSNCYTDTAHCSIQDLGFVATLKNDEPYFRVFLGGGLGKQPKVALELDELIKPKDALYCVEGMIKFFMDYGNYENKNRARVRYMVESLGEELFLEKFKEYYKLEKENGSLELNI” was “not soluble”; that for “STLQPRCEDVETAEGVALTVTGVAQVKIMTEKELLAVACEQFLGKNVQDIKNVVLQTLEGHLRSILGTLTVEQIYQDRDQFAKLVREVAAPDVGRMGIEILSFTIKDVYDKVDYLSSLGKTQTAVVQRDADIGVAEAERDAGIREAECKKEMLDVKFMADTKIADSKRAFELQKSAFSEEVNIKTAEAQLAYELQGAREQQKIRQEEIEIEVVQRKKQIAVEAQEILRTDKELIATVRRPAEAEAHRIQQIAEGEKVKQVLLAQAEAEKIRKIGEAEAAVIEAMGKAEAERMKLKAEAYQKYGDAAKMALVLEALPQIAAKIAAPLTKVDEIVVLSGDNSKVTSEVNRLLAELPASVHALTGVDLSKIPLIKKATGVQV” was “not soluble”; that for “MIYSRSKLPSEGEILIATVKQVFDYGSYVSLDEYGGLQAFLPWSEVSSKWVKNIRDVLKENRKVIVKVIRVDRRKGTVDVSLKKVTDDERRKKNLQWKKIQRLDKILELVSQKLKLSEKDAWEQVAWKLEAKYGDPITAIEKAVKEGEKILIDAGVPEIWVKPLLEEASKHAEERKVKMSGLITVRTNEPLGVEKIKEVISKALENIEQDYESLLNIKIYTIGAPRYRVDVVGTNPKEASEALNQIISNLIKIGKEENVDISVVKK” was “soluble”.
The value for “MALGLKCFRMVHPTFRNYLAASIRPVSEVTLKTVHERQHGHRQYMAYSAVPVRHFATKKAKAKGKGQSQTRVNINAALVEDIINLEEVNEEMKSVIEALKDNFNKTLNIRTSPGSLDKIAVVTADGKLALNQISQISMKSPQLILVNMASFPECTAAAIKAIRESGMNLNPEVEGTLIRVPIPQVTREHREMLVKLAKQNTNKAKDSLRKVRTNSMNKLKKSKDTVSEDTIRLIEKQISQMADDTVAELDRHLAVKTKELLG” was “soluble”; that for “MADYTTIAAQPRNEFGKGFARRLRVAGQVPGVIYGVDVEAPIHFSINRLELHAVLRAHGVNAIIELDIEGEKHLTMIKHVDQNVLTLNADHVDLLAIKRGEKVEVEVPVVLTGETAPGTTLVQDADVVLVEADVLSIPEEITFSVEGLDVDSKVLAGDLAMPANTSLVADAETVIASVNHEEVAEEAEETEGEDAEEAPAAEGEE” was “soluble”; that for “MYYPFVRKALFQLDPERAHEFTFQQLRRITGTPFEALVRQKVPAKPVNCMGLTFKNPLGLAAGLDKDGECIDALGAMGFGSIEIGTVTPRPQPGNDKPRLFRLVDAEGLINRMGFNNLGVDNLVENVKKAHYDGVLGINIGKNKDTPVEQGKDDYLICMEKIYAYAGYIAINISSPNTPGLRTLQYGEALDDLLTAIKNKQNDLQAMHHKYVPIAVKIAPDLSEEELIQVADSLVRHNIDGVIATNTTLDRSLVQGMKNCDQTGGLSGRPLQLKSTEIIRRLSLELNGRLPIIGVGGIDSVIAAREKIAAGASLVQIYSGFIFKGPPLIKEIVTHI” was “soluble”.
For “MAHHHHHHMLLKALKASFEANKRVYESVLLTFKGVDGYDVYNCSVPFSYKGKTHIYGRVEKRDIWAASHVRLFEETGKDEFTAVPELSWELEDPYIAKINNEMIFGGTRVRKNGNAILSYYGYFYRGTPVELNYFTTGPDYMKDIRVVPLQDGRLGVFSRVRTRAEVYVGFSTVDTIDHLTTEVIATAKAIDFIRPGTWGGVNQAYLLSSGKIGCIGHFAYNDTKPSGEPLMVYINISFVFDAETRQLDTEHVIGTKSCYPACPAKLPVLEDCVFASGIVMRSDGKCDLYSGLGDTHEGRITIDYPFHGYGNIVGQMIF” the value was “not soluble”; for “MKNNQNSNIHLLRSAKHAEPVMLDIKQLVKTYDNGHQAVKGVDLSIHQGEFIVLVGPSGCGKSSILRSIAGLESITSGEIHLAGRRVDNEKPANRDIAMVFQNYALYPHMSVYDNLAYGLKNRGVDKQTIAAKIAKVAKTLKIEEYLDRKPAKLSGGQRQRVAMGRAIVRDPQLFLFDEPLSNLDAALRAHMRLEIKKLQRELGVTSVYVTHDQVEAMTLADRIVVVKQGEIEQVGTPAEVYHQPASTFVASFIGSPAMNFLPASIKQGQLHIAGKHCYLPQFDAMSSENITLGIRPEHASLHPLTNAIELKLDIQVVEPLGPNQLVHGKIIGLESEQDFIAVTAEIPLDVHQTLPIWVALEQLHLFDQQGKRFVQSHRSCTQSSKVASTRQQ”, “not soluble”.
For the sequence “SAQEEGGSLPEVRARVRAAHGIPDLAQKLHFYDRWAPDYDQDVATLLYRAPRLAVDCLTQALPGPPHSALILDVACGTGLVAAELRAPGFLQLHGVDGSPGMLEQARAPGLYQRLSLCTLGQEPLPSPEGTFDAVLIVGALSDGQVPCNAIPELHVTKPGGLVCLTTRTNWSNLQYKEALEATLDRLEQAGMWEGLVAWPVDRLWTAGSWLPPSWWWYPASLPRMASSPALSTCTESGRRPRLRK”, the “soluble on expression in E. coli” value is “soluble”.
The value for “MSLARLKVKVWGEYACFSRPEFKVERVSYPVPTPSAARGLLEAIFWKPEFRYEVRRIGVLRLGTPFALLRNEVGNRMGAKPFFVEDARQQRTSLVLKDVAYLVEADMVLRPHATDPLPKYLEQFERRLKKGQYHHTPYLGTREFPAYFSPPDGEVPDGGLNLDLGPMLFDLAFVEDPGRPELTFKRPGRGEVQGYALPLFFHARIREGWLEVPAEKYQELYRLEEGHAKGAEGHHHHHH” was “soluble”; that for “MGSDKIHHHHHHVSDLEWVLAIPHEQAFKRMEEPWGGAKTSYLTGIKETLEANYGPIHFTRLYFGEEFCERALSTGKALEEAVAAAEERGWGFTYVTPYLTETGLTKVRLLLDILAQTKPEAEVVINDWGVLDWVTEHHPTFTPVLGRLMNKIIRDPRMPDSLRNSPDQTVMHKFRTCNLAGGEMKDLLDQYQVKRIELDYPPQGLDPNLPAWGYDISLSIPYGVIMTGRICLMQSWGLAAGEKFRTTGPCPRRCRLGWLELSDPSGRVKKDQDWQIMQKGNTVFYRQSKEFLAEILTEAEKTGVSRMIFQPEPI” was “not soluble”.
For “MSDDGGFLSSQSSRELTEDDHEKLAKQTSISDFKRNKLEIDARKNWDKFYHRNKNNFFKDRNWSAEDLKMMCPDIDFEKEISYLEAGCGVGNMLFPLVAEIPNLKLFAFDFSDNAVKLLEERAKELELSVATSVVDLSIPSVSSPFEEQVDLATLIFVLSAIHPEKHQISAENVRKMIKIGGSVVVRDYGINDHAMIRFGREARISDRFYVRQDGTRAYYFDLNELSEVFEKSGFRCVRKEYLHRMTVNHQKGLKAPRIFVQARFIRES” the value was “not soluble”; for “MSLQQPLAYRMRPRTIDEVVGQQHLVGEGKIIRRMVDARMLSSMILYGPPGTGKTSIASAIAGSTNYAFRMLNAATDSKKDLQVVAEEAKMSGTVILLLDEVHRLDKTKQDFLLPHLESGRIILIGATTENPYITINPAIRSRTQIFEVKPLTEQDIQLAVEHALRDKERGLGQQAIQLDEDALLHLSRATNGDLRSALNGLELATLSTPSDKEGRIHLTLSIIEECVQRKALTHDKNGDAHYDVISAFQKSIRGSDVDAALHYLARLVEAGDLASICRRLMVIGYEDIGLGNPAAAARTVNAVLAAEKLGLPEARIPLADVVVDLCLSPKSNSAYMALDAALADIREGKAGDVPDHLRDSHYKGAKSLNRGVGYQYPHHFDQAWVNQQYLPDKLKNAQYYQPKDTGKYEQALGQQYYRIKEWKEGHHHHHH”, “soluble”; for “MTTKKADYIWFNGEMVRWEDAKVHVMSHALHYGTSVFEGIRCYDSHKGPVVFRHREHMQRLHDSAKIYRFPVSQSIDELMEACRDVIRKNNLTSAYIRPLIFVGDVGMGVNPPAGYSTDVIIAAFPWGAYLGAEALEQGIDAMVSSWNRAAPNTIPTAAKAGGNYLSSLLVGSEARRHGYQEGIALDVNGYISEGAGENLFEVKDGVLFTPPFTSSALPGITRDAIIKLAKELGIEVREQVLSRESLYLADEVFMSGTAAEITPVRSVDGIQVGEGRCGPVTKRIQQAFFGLFTGETEDKWGWLDQVNQ”, “soluble”.
Consider “MLNQKIQNPNPDELMIEVDLCYELDPYELKLDEMIEAEPEPEMIEGLPASDALTPADRYLELFEHVQSAKIFPDSKTFPDCAPKMDPLDILIRYRKVRRHRDFDLRKFVENHFWLPEVYSSEYVSDPQNSLKEHIDQLWPVLTREPQDHIPWSSLLALPQSYIVPGGRFSETYYWDSYFTMLGLAESGREDLLKCMADNFAWMIENYGHIPNGNRTYYLSRSQPPVFALMVELFEEDGVRGARRYLDHLKMEYAFWMDGAESLIPNQAYRHVVRMPDGSLLNRYWDDRDTPRDESWLEDVETAKHSGRPPNEVYRDLRAGAASGWDYSSRWLRDTGRLASIRTTQFIPIDLNAFLFKLESAIANISALKGEKETEALFRQKASARRDAVNRYLWDDENGIYRDYDWRREQLALFSAAAIVPLYVGMANHEQADRLANAVRSRLLTPGGILASEYETGEQWDKPNGWAPLQWMAIQGFKMYGDDLLGDEIARSWLKTVNQFYLEQHKLIEKYHIADGVPREGGGGEYPLQDGFGWTNGVVRRLIGLYGEPLEHHHHHH”, for which the “soluble on expression in E. coli” value was “not soluble”.
As to “TNRVADLTIYIIRQGVLDRRYLGEIERLYTENKFTNMCLVLNDVSYSGSRGTYGYGYGYGYGNKEYGKQGKKLRRRSAKKTKKFKIGPMKKS”, the “soluble on expression in E. coli” value was “not soluble”.
Turning to “MLKGIDLTYPQLTYLPETGILYDNTYNEKTVPIISGGGSGHEPAHVGYVGSGMLAAAVTGPLFIPPKSKNILKAIRQVNSGKGVFVIIKNFEADLKEFNEAIKEARTEGIDVRYIVSHDDISVNAYNFHKRHRGVAGTILLHKILGAFAKEGGSIDEIEQLALSLSPEIYTLGVALAPVHFPHQKTSFVLAEDEVSFGIGIHGEPGYRVEKFEGSERIAIELVNKLKAEINWQKKANKNYILLVNGLGSTTLMELYSFQYDVMRLLELEGLSVKFCKVGNLMTSCDMSGISLTLCSVKDPKWLDYLNVPTGAFAWLEHHHHHH”, the “soluble on expression in E. coli” value is recorded as “not soluble”.
The value for “MGSDKIHHHHHHMLNLTPSAISQSIQKLRVIFPDPLFIRKGQGVTPTAFAMHLHEYISQGLESILGALDIEGSYDKQRTITIATTPSVGALVLPVIYRAIKTHYPQLLLRNPPISDAENQLSQFQTDLIIDNMFCTNRTVQHHVLFTDNMVLICREGNPLLSLEDDRETIDNAAHVLLLPEEQNFSGLRQRVQEMFPDRQINFTSYNILTIAALVANSDMLAIIPSRFYNLFSRCWPLEKLPFPSLNEEQIDFSIHYNKFSLRDPILHGVIDVIRNAF” was “not soluble”; that for “MSSFLRPAVSGQDPFTTGNYRAISSHLAITPPVSVVIPAMNEAENLPYVFKSLPDWIHEVVLVDGNSTDGTVEVARELWPDVKVVEQRGKGKGDALITGFEACTGDIIVMVDADGSADGQEIVSYVSALVSGADFAKGSRFANGGGTSDMTPIRKLGNRVLCAAVNAKFGARYTDLCYGYNAFWRHCLDQIDLDCTGFEVETLMNIRVVKAGLKVQEIPSHEYLRIHGASNLRAVRDGLRVLKVILKERSNRRALRSRPHAMQLNSGQGEVSLEHHHHHH” was “soluble”.
